Experimental data as given in article PMC6373445, “Identification and characterization of GH11 xylanase and GH43 xylosidase from the chytridiomycetous fungus, Rhizophlyctis rosea” (Applied Microbiology and Biotechnology, 2018).
Values belong to the molecule of their own block, whether it stands above or below them.

Columns and labels:
RrXyl43A = target: T1, RrXyl43A (Rhizophlyctis rosea, UniProt A0A2U8LMQ1); assay: residual pNPX hydrolysis, absorbance […] nm; type: biochemical; details: read-out: % residual activity at 100 mM
T1 construct: full-length 325 residues, no native signal peptide; codon-optimized in pPICZalphaA with alpha-factor signal, His-tagged, Pichia pastoris KM71H; theoretical 39 kDa with tag; active as monomer; not N-glycosylated
T1 sequence (A0A2U8LMQ1 1-325): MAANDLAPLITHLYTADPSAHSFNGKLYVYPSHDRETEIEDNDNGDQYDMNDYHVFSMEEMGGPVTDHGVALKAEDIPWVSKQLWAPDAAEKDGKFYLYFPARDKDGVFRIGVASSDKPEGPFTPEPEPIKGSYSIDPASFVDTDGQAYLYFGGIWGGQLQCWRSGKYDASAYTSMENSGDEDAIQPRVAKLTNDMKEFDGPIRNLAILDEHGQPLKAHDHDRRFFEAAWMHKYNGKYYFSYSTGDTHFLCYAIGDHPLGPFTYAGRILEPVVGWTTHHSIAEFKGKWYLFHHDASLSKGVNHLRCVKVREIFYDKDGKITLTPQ

purified protein = substrate: O=[N+]([O-])c1ccc(O[C@@H]2OC[C@@H](O)[C@H](O)[C@H]2O)cc1; assay: purified protein; type: biochemical, Rhizophlyctis rosea; details: McIlvaine buffer pH 7, 25 °C, 10 min

- remaining activity at 100000 µM (RrXyl43A): 51%
Molecule: OC1OC[C@@H](O)[C@H](O)[C@H]1O (stereo partly shown) [xylose]

B1: RrXyl43A (Rhizophlyctis rosea) (protein)
chain: T1 sequence (A0A2U8LMQ1 1-325)
notes: full-length 325 residues, no native signal peptide; codon-optimized in pPICZalphaA with alpha-factor signal, His-tagged, Pichia pastoris KM71H; theoretical 39 kDa with tag; active as monomer; not N-glycosylated
- Km (purified protein): 1340 ± 170 µM
- Vmax (purified protein): 34.6 µmol/min/mg
- kcat (purified protein): 21.2 ± 0.89 s⁻¹
